± gives the half width of the 95% confidence interval.

Data set [1] can be described thus: folding stability dG unfold from trypsin proteolysis; higher = more stable. An outline of the steps:
(§1)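 K50 was inferred by Bayesian fitting of sequencing counts obtained after protease digestion of designed mini-proteins. Unfolding free energy was derived by comparison with a sequence-predicted unfolded-state K50 and a shared folded-state K50, for each protease or both combined. The mini-proteins were under 80 residues, had no cysteine, were carried in a PA-tagged cDNA display construct, and were kept only if AlphaFold2 dimer inter-PAE exceeded 15.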

The nature of data set [2]: folding stability dG unfold from chymotrypsin proteolysis; higher = more stable. An outline of the steps:
as §1

The nature of data set [3]: folding stability dG unfold (combined trypsin and chymotrypsin); higher = more stable. An outline of the steps:
as §1

As for “SAGGSAGGSAGGMKLDVTIVGDGKVTTLPADSLEDVEETLKKLGLTLKSVDPATGTVTVASAGGSAGGSAGG [r7_726_JUSTAS]”, the “folding stability dG unfold” value was 0.718 ± 0.051 kcal/mol in data set [1], -0.0786 ± 0.54 kcal/mol in data set [2] and 0.305 ± 0.19 kcal/mol in data set [3].

Take “SAGGSAGGSAGGMKTITIKVPSSVSFEEAKKKAEALFPKSIPVKVEYDPKTGTFTVTVESAGGSAGGSAGGS [r10_163_JUSTAS]”: the “folding stability dG unfold” value in data set [1] is 1.77 ± 0.035 kcal/mol; in data set [2], 2.349 ± 0.015 kcal/mol; in data set [3], 2.17 ± 0.046 kcal/mol.

Turning to “SAGGSAGGSAGGMKTITLTTTSPEEAEAAKEKLLKEGPNNLVITYKPPPEPYPENGPRVVSAGGSAGGSAGG [r7_261_JUSTAS]”, the “folding stability dG unfold” value in data set [1] is -0.294 ± 0.25 kcal/mol; in data set [2] it was 0.743 ± 0.14 kcal/mol; in data set [3], 0.683 ± 0.21 kcal/mol.

For the sequence “SAGGSAGGSAGGMKTLTVTTESLTKEEIIEEIKAMGYPNAKVTVTPSPENPDKYIVNVIESAGGSAGGSAGG [r7_988_JUSTAS]”, the “folding stability dG unfold” value was 0.292 ± 0.091 kcal/mol in data set [1], 0.736 ± 0.13 kcal/mol in data set [2] and 0.404 ± 0.18 kcal/mol in data set [3].

With “SAGGSAGGSAGGMKVKAYIFENGKLKEIELSEEELKELLKKLPNARILIEVDGKKLELPASAGGSAGGSAGG [r7_188_TrROS_Hall]”, the “folding stability dG unfold” value stood at 1.93 ± 0.083 kcal/mol in data set [1], 3.79 ± 0.12 kcal/mol in data set [2] and 3.51 ± 0.2 kcal/mol in data set [3].

Take “SAGGSAGGSAGGMKVTTINLPDGTTIEYYPETGSVTIHPSDGSVSTRPDLTLEDVLAALSAGGSAGGSAGGS [r10_569_JUSTAS]”: the “folding stability dG unfold” value amounted to 2.38 ± 0.066 kcal/mol in data set [1], 1.81 ± 0.031 kcal/mol in data set [2] and 2.07 ± 0.051 kcal/mol in data set [3].

Regarding “SAGGSAGGSAGGMLSGQVIEVTIPPERRLVRVEKLPSGDYLITIYRPDEPKPLETLRIRASAGGSAGGSAGG [r7_620_JUSTAS]”, the “folding stability dG unfold” value in data set [1] was found to be 1.49 ± 0.034 kcal/mol; in data set [2] it was 1.92 ± 0.071 kcal/mol; in data set [3] it was 1.78 ± 0.11 kcal/mol.

Consider “SAGGSAGGSAGGMLYVKVKTEDGEELVLEVEGMTEDEIREELAKAGFKIEEIEVYEVEPSAGGSAGGSAGGS [r10_572_TrROS_Hall]”, for which the results for the “folding stability dG unfold” value in data set [1], in data set [2] and in data set [3] were 2.36 ± 0.093 kcal/mol, 2.83 ± 0.018 kcal/mol and 2.71 ± 0.06 kcal/mol, respectively.

“SAGGSAGGSAGGMPLVRIEVTNENGEKFTFIFESEEEAKAAAEALGVDVKIEKIPPGEEISAGGSAGGSAGG [r7_456_TrROS_Hall]”: the entries for the “folding stability dG unfold” value in data set [1], in data set [2] and in data set [3] were 2.54 ± 0.17 kcal/mol, 3.25 ± 0.085 kcal/mol and 2.92 ± 0.14 kcal/mol, respectively.

Take “SAGGSAGGSAGGMPPATTVVEKPETSLTLEKTPTTVTIHDKATGKTSTVPAAEVDPALLSAGGSAGGSAGGS [r10_512_JUSTAS]”: the entries for the “folding stability dG unfold” value in data set [1], in data set [2] and in data set [3] were -0.373 ± 0.11 kcal/mol, 0.297 ± 0.075 kcal/mol and 0.138 ± 0.1 kcal/mol, respectively.

Regarding “SAGGSAGGSAGGMPPFVELEFVGEFKVNGEKVLVLRLPDGSIRIVNLKTGETITVPASLLSAGGSAGGSAGG [r7_28_JUSTAS]”, the “folding stability dG unfold” value in data set [1] stood at 2.33 ± 0.048 kcal/mol; in data set [2] it was 2.67 ± 0.038 kcal/mol; in data set [3], 2.57 ± 0.067 kcal/mol.

For “SAGGSAGGSAGGMPPGTVVRSEVVRTETFTETITLPSGETATTTVTTTTTTEVEVEQPLSAGGSAGGSAGGS [r10_297_JUSTAS]”, the “folding stability dG unfold” value was 0.233 ± 0.079 kcal/mol in data set [1], 0.469 ± 0.047 kcal/mol in data set [2] and 0.54 ± 0.22 kcal/mol in data set [3].

Consider “SAGGSAGGSAGGMPTYEVTLEPDPTGGDVYTVTVTFPDGSTVTRNATPAELKAEGLTVKVSAGGSAGGSAGG [r7_14_JUSTAS]”, for which the figures for the “folding stability dG unfold” value in data set [1], in data set [2] and in data set [3] were 1.09 ± 0.039 kcal/mol, 0.88 ± 0.044 kcal/mol and 0.967 ± 0.072 kcal/mol, respectively.

On to “SAGGSAGGSAGGMPVEVTTLETRKDPAGTTTEITLDPKTGRTIIVTKYPNGGSETTVVESAGGSAGGSAGGS [r10_1118_JUSTAS]”, for which the entries for the “folding stability dG unfold” value in data set [1], in data set [2] and in data set [3] were 0.788 ± 0.069 kcal/mol, 0.504 ± 0.065 kcal/mol and 0.622 ± 0.17 kcal/mol, respectively.

Regarding “SAGGSAGGSAGGMRIRLENGEVIKIKNAKTKEELLNALKAIPGLKIEYDEETKELWIYRSAGGSAGGSAGGS [r10_792_TrROS_Hall]”, the “folding stability dG unfold” value in data set [1] was found to be 1.88 ± 0.075 kcal/mol; in data set [2], 2.33 ± 0.097 kcal/mol; in data set [3], 2.22 ± 0.16 kcal/mol.

Take “SAGGSAGGSAGGMSLSTSVESLTVFDSSGNVLEERTITVEKTVPLFGKPVYVYPTPSNTLSAGGSAGGSAGG [r17_325_JUSTAS]”: the “folding stability dG unfold” value in data set [1] stood at 0.136 ± 0.1 kcal/mol; in data set [2], 0.248 ± 0.11 kcal/mol; in data set [3], 0.265 ± 0.12 kcal/mol.

As to “SAGGSAGGSAGGMSPGSSSTTVTTTTSPNGTVVTTTTTTTLDPNSNTTSSTTTTTTTTTSAGGSAGGSAGGS [r10_1164_JUSTAS]”, the “folding stability dG unfold” value stood at 3.15 ± 0.25 kcal/mol in data set [1], 1.74 ± 0.18 kcal/mol in data set [2] and 2.42 ± 0.25 kcal/mol in data set [3].

For the sequence “SAGGSAGGSAGGMSSTVSLSTSFLPNGEKVVTTTTTFTDSSTTTTTTTTTTVALPPPSVVSAGGSAGGSAGG [r7_495_JUSTAS]”, the “folding stability dG unfold” value in data set [1] came to 1.14 ± 0.075 kcal/mol; in data set [2], 0.984 ± 0.093 kcal/mol; in data set [3] it was 1.23 ± 0.14 kcal/mol.

“SAGGSAGGSAGGMSVTVSREKLPDGSYLVTVTTEVGGGPVTTPYRVPPSLSSAEEVVEKLSAGGSAGGSAGG [r7_75_JUSTAS]”: the “folding stability dG unfold” value is -0.0439 ± 0.14 kcal/mol in data set [1], -0.659 ± 0.51 kcal/mol in data set [2] and -0.23 ± 0.2 kcal/mol in data set [3].

For the sequence “SAGGSAGGSAGGMTAIIVESEEEAKKIAEEKGIKDVKFIPKGKPELLKPDVDKVIKINKKSAGGSAGGSAGG [r7_381_JUSTAS]”, the “folding stability dG unfold” value in data set [1] is -0.282 ± 0.22 kcal/mol; in data set [2] it was 0.348 ± 0.075 kcal/mol; in data set [3], 0.102 ± 0.33 kcal/mol.

Turning to “SAGGSAGGSAGGMTAKEIAEKLGLPPGAKVVKIEYDKETNTFYIVIEVDGELKTYRIDVSAGGSAGGSAGGS [r10_17_TrROS_Hall]”, the results for the “folding stability dG unfold” value in data set [1], in data set [2] and in data set [3] were 4.2 ± 0.14 kcal/mol, 4.765 ± 0.037 kcal/mol and 4.69 ± 0.087 kcal/mol, respectively.

For the sequence “SAGGSAGGSAGGMTITIKVPPNMTEEQLRELARELARKLGLEDVEVRIERREDGTVRITFSAGGSAGGSAGG [r7_810_TrROS_Hall]”, the “folding stability dG unfold” value in data set [1] was 4.91 ± 0.2 kcal/mol; in data set [2], 4.83 ± 0.12 kcal/mol; in data set [3], 4.85 ± 0.15 kcal/mol.

In the case of “SAGGSAGGSAGGMTITLVDPENGVKEAEIEEVDGKLRITVVNEETGEKEEIELPLEELLSAGGSAGGSAGGS [r10_772_TrROS_Hall]”, the “folding stability dG unfold” value in data set [1] turned out to be 0.648 ± 0.063 kcal/mol; in data set [2], 0.288 ± 0.14 kcal/mol; in data set [3], 0.477 ± 0.16 kcal/mol.

Consider “SAGGSAGGSAGGMTITVNGPTATITYPDGSVETIPLTSPEEFEALKAAHPDVEATPASPSAGGSAGGSAGGS [r10_1211_JUSTAS]”, for which the “folding stability dG unfold” value in data set [1] worked out at 0.353 ± 0.047 kcal/mol; in data set [2], 1.21 ± 0.014 kcal/mol; in data set [3], 0.967 ± 0.093 kcal/mol.

With “SAGGSAGGSAGGMTIVIVVPAENLTPEEIAELLREAGYEVTVERREDGYLVVTVRLPEPSAGGSAGGSAGGS [r10_1254_TrROS_Hall]”, the “folding stability dG unfold” value in data set [1] was 3.5 ± 0.083 kcal/mol; in data set [2] it was 3.08 ± 0.052 kcal/mol; in data set [3], 3.43 ± 0.048 kcal/mol.

As to “SAGGSAGGSAGGMTKLEPLATEPNPLKVLTKVTTTDPVTGKPKTTIVETEIPVPESELGSAGGSAGGSAGGS [r10_846_JUSTAS]”, the “folding stability dG unfold” value in data set [1] is 0.0416 ± 0.06 kcal/mol; in data set [2], -0.0657 ± 0.13 kcal/mol; in data set [3], 0.0083 ± 0.12 kcal/mol.

(Values after the supplement of paper PMC12764529.)
